# Assay results: the RNAGym collection of RNA variant scans (doi:10.1073/pnas.2313332121)
# B1: TPR t1 (parent)
# chain: GACCAAUCUGCCCUCAGAGCUCGAGAACAUCUUCGGAUGCAGAGGAGGCAGGCUUCGGUGGCGCGAUAGCGCCAACGUCCUCAACCUCCAAUGCAUCCCACCACAUGAUGAUGCCUGAAGAGCCUUGGUUUUUUG
# Variants of: B1
# Assay: polymerase ribozyme fitness, log enrichment relative to wild type (log ratio); higher = more active; in vitro selection for triplet polymerase activity
# Summary of the method: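 Only genotypes with ≥10 input reads and ≥1 read per output were kept after Illumina sequencing of input and output libraries. These libraries were PCR-built, transcribed mutants of each subunit of a heterodimeric triplet polymerase ribozyme, each put through one triplicate in vitro selection round with frozen incubation at −7 °C, gel excision of extended constructs, streptavidin-bead capture and RT-PCR. Fitness is a logarithmic ratio of genotype enrichment to wild-type enrichment, from inverse-variance-weighted replicate averages, with the logarithm in base 2.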
row,Variant,polymerase ribozyme fitness (log ratio)
1,A16U G42U,-2.52
2,A16G U106A,-0.109
3,A16U G61U,-1.11
4,A16U G61C,-2.41
5,G17A C56A,-2.66
6,C15U A91G A105G U112A,-3.8
7,G17C A26G A37U C53G G57A A91G G93U A111U U129G,-6.27
8,A16C U106A,-2.82
9,C15A C80U A84U,-2.49
10,G17A G36U U112G,-4.13
11,A16U G58U C123A,-2.18
12,A16U C124U,0.484
13,C15G C72U A100U,-3.69
14,A16G G71C C124A U130A,0.62
15,A16U C79U A91G C123G U131G,-1.49
16,A16U G117A,-2.22
17,A16U G117U,-2.04
18,A16C G52A C70U C73U,-3.8
19,C15U C28U G44U C62U U87C U106C,-5.37
20,C15G A100U,-4.44
21,C15A C49G C98U,-3.16
22,C15U G58A C85A G113U,-5.84
23,C15G A26U G44C G117C,-2.36
24,C15U A29U C40A A46C C123A,-5.62

row,Variant,polymerase ribozyme fitness (log ratio)
1,A16G G61C A84C G117A A119G,-2.13
2,C15G A50C,-2.38
3,G17A A43U G120A,-3.38
4,C15A C114U,-4.61
5,C15U G51U G60A,-5.07
6,C15G C22A G52C A119G,-5.02
7,C15U C72A C73A U81A A84G,-4.77
8,C15G C62G,-5
9,A16C G48A C73U,-3.7
10,C15A G57A C94U,-2.78
11,C15A C40U C115U U131A,-1.85
12,C15U A83G U87C,-2.34
13,C15U C40A G60C,-2.3
14,C15U A95G,-1.71
15,C15A G39A C53A U125A,-3.62
16,C15A A43U C49U A91U,-3.45
17,C15U C79U,-1.97
18,A16C C97U A100U,-3.88
19,C15U A43G C124A,0.00445
20,C15U G48U A74C G77C,-2.27
21,C15G C86U G110A A118U,-3.91
22,A16U C70A,-3.19
23,C15U G58C C72A C102G G107U A121C,-6.59
24,A16U C102U,-3.23

row,Variant,polymerase ribozyme fitness (log ratio)
1,G17A C49G U55C A75U C76U G113U,-7.46
2,A16C A41U G52C C64G C82G G110C,-6.92
3,C15U A74U A83C A100U U116A,-5.53
4,C15G C79G,-4.93
5,C15G C70G,-3.8
6,G17C C80G C124A,-8.59
7,A16U C53G U96G U112A G128C,-3.45
8,C15A G71A A91G U112A G113C,-5.47
9,G17C A91C,-4.65
10,C15U G42U U87G C88A C101U G113U,-5.85
11,G17A A46U,-4.52
12,A16U G45A G61U C82G,-1.81
13,C15U G110C,-4.52
14,C15U A43C C70A C123U C124A,-4.89
15,A16U A18G,-3.02
16,A16G G35U C49G C115A A119G A121U,-4.09
17,C15U U78G C86U G113C,-5.8
18,A16C C82G,-3.22
19,C15A G60C U116C,-3.39
20,A16G A46C G120C,-0.418
21,C15U G17C C72A A121C,-1.65
22,C15A G44U,-2.85
23,C15G G17C,-4.24
24,G17A G48C C124A G128A,-3.31

row,Variant,polymerase ribozyme fitness (log ratio)
1,C15A G36A A50C G65A G69U,-7.38
2,A16U A50G G58A G60A C64U,-3.73
3,C15A A74G U78G C79U G110U,-3.12
4,C15G A84U,-2.56
5,A16U C49A G51U U55G U126G G128U,-5.16
6,G17C G42A A74G A84C A91U,-4.35
7,A16G G44U G117A,-3.84
8,G17A G36U C56U,-4.9
9,C15U C70G U78A C86G G127A,-5.32
10,A16U U78A U92A,-4.78
11,A16G A84U A90C,-2.9
12,C15A A84G C94U,-2.76
13,C15U C80A,-4.32
14,G17A G63C U109A C115A,-6.25
15,C15U C34G C49G G69U G120A,-3.56
16,C15U G52U,-2.36
17,G17C A37U U54G U112C,-3.41
18,C15U G60A,-0.966
19,C15A C72G,-2.3
20,C15A C64G C70A U92C G110C C115U G127U,-7.47
21,G17A G48U G57C G60A,-2.98
22,C15U A43C G69A C123U C124A,-5.69
23,G17A A43G G47U G120C G135C,-2.39
24,C15U U130A,-1.54

row,Variant,polymerase ribozyme fitness (log ratio)
1,C15G C86U U116G,-2.95
2,C15U G127A U129A,-4.11
3,C15U G17C A121C,-2.22
4,C15U U21A U96G A118U,-0.0472
5,A16U G36A A41U C73A,-4.17
6,A16U A41C G57A A84U,-3.81
7,A16C C53U C86G,-2.99
8,C15U G47U G52C C53A C124G,-1.51
9,C15A C70U C114U,-5.04
10,A16G C70U C76A,-2.84
11,A16C G117U A121C,-4.48
12,A16C C56U A84C C85U A100C,-4.89
13,C15U A16U G23A G63A G93C C114G,-7.78
14,A16U C79G,-2.59
15,C15G G61C,-2.41
16,G17C C49A C82U C114U,-5.49
17,G17A C20G A121G,-4.27
18,G17C C88U,-4.49
19,C15G U55A C70A A83U C97U U130C,-5.79
20,C15U G17A C40G C64A A90G C94A C104G G120C,-7.98
21,G17C C64U,-4.22
22,C15G G77C,-2.39
23,C15A A66G,-2.15
24,C15A C104U G110A,-2.85

row,Variant,polymerase ribozyme fitness (log ratio)
1,A16U A50C,-2.04
2,G17A C73U U112A A119U C123U U125C,-2.9
3,C15G C40G C56A,-3.88
4,A16C C82G G120C,-1.47
5,C15A C101G C124G,0.0121
6,A16G G42U C102U C124G,-3.81
7,A16C C22U G60C G93C A118U A121G,-6.04
8,A16U G60U U87G G122A U126C,-3.42
9,C15U G63U,-3.19
10,G17A A18C C62G G120C,-4.41
11,G17C C49A C72U C82U C114U,-4.65
12,C15U A46C C70G,-4.3
13,G17A G63A C82U,-5.43
14,C15A U54A C56G,-3.37
15,C15U C76A,-1.94
16,C15A C49U G61A,-1.73
17,C15A C73U,-2.31
18,C15A A74G G113A,-4.02
19,A16C G60C A111G,-1.81
20,C15U C124U,0.776
21,C15G C34A C70G A121C,-6.55
22,A16C C56A C97G,-5.42
23,C15G C73A C88G,-3.31
24,G17C C28U G61U C85A G110A G120C,-1.25

row,Variant,polymerase ribozyme fitness (log ratio)
1,C15U G19A C89A,-5.15
2,A16C G25U A26G,-4.77
3,A16U G48C U59C U126C,-2.91
4,A16C G71C U126C U131A,-4.45
5,C15U G52A G93A A95G,-2.44
6,A16U C70U G117U C123A,-4.02
7,C15U G36C U54C C85A G117U G127C,-5.33
8,C15G G63C A84C,-4.12
9,A16C C72G C82G G120C,-1.82
10,C15G C73U A75G G107U U109A C124G,-5.07
11,C15U C104U G117U,-0.366
12,A16C U38G C70A,-4.31
13,C15G C124U,-0.148
14,A16C A50U,-4.64
15,A16U G57U,-1.91
16,A16C C49A A74C C88A U116C,-3.06
17,C15A G71U A90U U106C A118U,-4.15
18,C15U A18U C34U A41G G48C U106A A111G C124G,-6.92
19,C15A C70G C99A G117A C124A G128A,-6.67
20,C15U C88G A103C C115G,-6.98
21,C15A U116A,-4.69
22,A16G A27C C72U C123U,-3.64
23,C15U G39C A66U G69C A75U,-3.53
